The record followed here is US20050124539A1 (Takeda / Millennium, published 2005).

No end group written: not given here. *: point of attachment. 125I = [125I]*

Test [1] concerns the target T1, TGR26, rat-derived G protein-coupled receptor protein (rat, UniProt Q56UD9 1-329).
T1 construct: Expressed in CHO dhfr- cells from pAK-rGPR7; also called rat TGR26; TGR26 receptor
T1 sequence: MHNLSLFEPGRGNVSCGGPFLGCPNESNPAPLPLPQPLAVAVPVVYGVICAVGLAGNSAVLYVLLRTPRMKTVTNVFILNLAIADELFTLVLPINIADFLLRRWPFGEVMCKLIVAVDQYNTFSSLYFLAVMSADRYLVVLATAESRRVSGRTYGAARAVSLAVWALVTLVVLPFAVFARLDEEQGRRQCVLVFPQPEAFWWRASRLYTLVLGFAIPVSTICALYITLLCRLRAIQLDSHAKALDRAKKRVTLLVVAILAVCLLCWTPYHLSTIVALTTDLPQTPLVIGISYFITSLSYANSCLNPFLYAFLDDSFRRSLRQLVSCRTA
In words: radioligand filter binding, membrane fraction of TGR26 expressing CHO cells. As to the method:
(§1) Cell membrane fraction prepared from TGR26 expressing cells was diluted to various concentration with assay buffer (25 mM Tris-HCl, 5 mM EDTA, 0.05% CHAPS (3-[(3-Cholamidopropyl) Dimethyl-Ammonio]-1-Propanesulfonate), 0.1% BSA, 0.5 mM PMSF, 1 μg/ml Pepstatin, 20 μg/ml Leupeptin, 4 μg/ml E-64, pH7.4), and 200 μl each of the diluent was dispensed into polypropilene test tube (Falcon 2053). In order to determine an amount of maximum binding, 2 μl of DMSO and 2 μl of 7 nM [¹²⁵-Tyr¹⁰]-hGPR8L(1-23) were added to the membrane fraction solution. Further, in order to determine a non-specific binding, 2 μl of 100 μM hGPR8L(1-23)/DMSO solution and 2 μl of 7 nM [¹²⁵I]-Tyr¹⁰]-hGPR8L(1-23) were added to the membrane fraction solution. The reaction was done at 25° C. for 75 minutes, and the reaction mixture was filtered by suction filtration using Whatman glassfilter (GF-F) treated with polyethyleneimine. In addition, the filter was washed twice with 1.5 ml of washing buffer (25 mM Tris-HCl, 5 mM EDTA, 0.05% CHAPS, 0.1% BSA, pH7.4). After filtration, a radioactivity remaining on the filter was counted using γ-counter, and an amount of specific binding was estimated by subtracting an amount of non-specific binding from an amount of maximum binding. […]

The target of test [2] is T2, Human GPR7 (human, UniProt P48145 1-328).
T2 construct: Full-length receptor expressed in CHO dhfr- cells; also called Human GPR7 receptor; GPR7 receptor
T2 sequence: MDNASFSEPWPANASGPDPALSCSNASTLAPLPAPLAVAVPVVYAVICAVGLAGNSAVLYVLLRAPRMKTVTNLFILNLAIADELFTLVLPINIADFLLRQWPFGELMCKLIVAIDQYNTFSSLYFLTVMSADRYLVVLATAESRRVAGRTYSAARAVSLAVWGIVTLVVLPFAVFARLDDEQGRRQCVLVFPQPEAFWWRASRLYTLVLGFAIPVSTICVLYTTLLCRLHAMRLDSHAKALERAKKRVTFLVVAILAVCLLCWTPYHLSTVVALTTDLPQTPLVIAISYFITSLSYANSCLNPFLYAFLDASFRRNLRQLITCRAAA
In words: radioligand filter binding, membrane fraction of Human GPR7 expressing CHO cells.

The target in test [3] is T3, Human GPR8 receptor protein (human, UniProt P48146 1-333).
T3 construct: Full-length receptor expressed in CHO dhfr- cells (CHO/GPR8)
T3 sequence (P48146 whole entry): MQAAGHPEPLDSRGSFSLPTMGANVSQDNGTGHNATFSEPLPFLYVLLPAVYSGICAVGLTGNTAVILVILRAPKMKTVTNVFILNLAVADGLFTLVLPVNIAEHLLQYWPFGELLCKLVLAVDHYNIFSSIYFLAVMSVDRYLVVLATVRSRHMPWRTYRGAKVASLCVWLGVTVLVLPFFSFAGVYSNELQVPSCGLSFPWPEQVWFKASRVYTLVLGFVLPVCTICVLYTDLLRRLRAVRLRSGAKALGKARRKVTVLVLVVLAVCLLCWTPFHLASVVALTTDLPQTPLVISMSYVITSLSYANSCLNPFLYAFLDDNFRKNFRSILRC
In words: radioligand filter binding, membrane fraction of Human GPR8 expressing CHO cells. As to the method:
Using [¹²⁵I]-labeled hGPR8L(1-23) prepared as described in Reference Example 42 and a cell membrane fraction prepared from Human GPR8 expressing cells by the similar manner as described in Reference Example 6, a receptor binding assay was carried out as follows.
Cell membrane fraction prepared from Human GPR8 expressing cells was diluted to various concentration with assay buffer (25 mM Tris-HCl, 5 mM EDTA, 0.05% CHAPS (3-[(3-Cholamidopropyl) Dimethyl-Ammonio]-1-Propanesulfonate), 0.1% BSA, 0.25 mM PMSF, 1 μg/ml Pepstatin, 20 μg/ml Leupeptin, pH7.4), and 200 μl each of the diluent was dispensed into polypropilene test tube (Falcon 2053). In order to determine an amount of maximum binding (TB), […] of DMSO and 2 μl of 7 nM [¹²⁵I-Tyr²]-hGPR8L(1-23) or [¹²⁵I-Tyr¹⁰]-hGPR8L(1-23) were added to the membrane fraction solution. Further, in order to determine a non-specific binding (NSB), 2 μt of 100 μM hGPR8L(1-23)/DMSO solution and 2 μl of 7 nM [¹²⁵I]-Tyr²]-hGPR8L(1-23) or [¹²⁵I-Tyr¹⁰]-hGPR8L(1-23) were added to the membrane fraction solution. […] After filtration, a radioactivity remaining on the filter was counted using γ-counter, and an amount of specific binding (SB) was estimated by subtracting an amount of non-specific binding from an amount of maximum binding. […]

Test [4] has as its target T2, Human GPR7. In words: radioligand filter binding, membrane fraction of GPR7 expressing CHO cells. As to the method: (§2) Cell membrane fractions prepared from GPR7 expressing CHO cells and GPR8 expressing CHO cells, were diluted to various concentration with assay buffer (25 mM Tris-HCl, 5 mM EDTA, 0.05% CHAPS, 0.1% BSA, 0.5 mM PMSF, 1 μg/ml Pepstatin, 4 μg/ml E-64, 20 μg/ml Leupeptin, pH7.4), and 200 μl each of the diluent was dispensed into polypropilene test tube (Falcon 2053). In order to determine an amount of maximum binding, 2 μl of DMSO and 2 μl of 7 nM [Phe², ¹²⁵I-Tyr¹⁰]-Human GPR8 ligand (1-20) were added to the membrane fraction solution. Further, in order to determine a non-specific binding, 2 μl of 100 μM hGPR8L(1-23)/DMSO solution and 2 μl of 7 nM [Phe², ¹²⁵I-Tyr¹⁰]-Human GPR8 ligand (1-20) were added to the membrane fraction solution. The reaction was done at 25° C. for 75 minutes, and the reaction mixture was filtered by suction filtration using Whatman glassfilter (GF-F) treated with polyethyleneimine. After filtration, a radioactivity remaining on the filter was counted using γ-counter, and an amount of specific binding was estimated by subtracting an amount of non-specific binding from an amount of maximum binding. When the concentration of membrane fraction was changed, a specific binding of [Phe², ¹²⁵I-Tyr¹⁰]-Human GPR8 ligand (1-20) was perceived depending on the concentration of membrane fraction.
(§3) The IC₅₀ values were 0.13 nM and 0.039 nM, respectively. […]

In test [5] the target is T3, Human GPR8 receptor protein. In words: radioligand filter binding, membrane fraction of GPR8 expressing CHO cells. As to the method:
as §2, §3

Test [6] deals with T2, Human GPR7. In words: cell-based or functional assay.
The target in test [7] is T2, Human GPR7. Briefly: cell-based or functional assay. The source holds these as a separate data set.
Test [8] concerns the target T3, Human GPR8 receptor protein. Briefly: competition with [125I-Tyr10]-hGPR8L(1-23), membrane fraction of GPR8 expressing CHO cells. As to the method: Cell membrane fraction prepared from Human GPR8 expressing cells was diluted to various concentration with assay buffer (25 mM Tris-HCl, 5 mM EDTA, 0.05% CHAPS (3-[(3-Cholamidopropyl) Dimethyl-Ammonio]-1-Propanesulfonate), 0.1% BSA, 0.25 mM PMSF, 1 μg/ml Pepstatin, 20 μg/ml Leupeptin, pH7.4), and 200 μl each of the diluent was dispensed into polypropilene test tube (Falcon 2053). In order to determine an amount of maximum binding (TB), […] of DMSO and 2 μl of 7 nM [¹²⁵I-Tyr²]-hGPR8L(1-23) or [¹²⁵I-Tyr¹⁰]-hGPR8L(1-23) were added to the membrane fraction solution. Further, in order to determine a non-specific binding (NSB), 2 μt of 100 μM hGPR8L(1-23)/DMSO solution and 2 μl of 7 nM [¹²⁵I]-Tyr²]-hGPR8L(1-23) or [¹²⁵I-Tyr¹⁰]-hGPR8L(1-23) were added to the membrane fraction solution. The reaction was done at 25° C. for 60 minutes, and the reaction mixture was filtered by suction filtration using Whatman glassfilter (GF-F) treated with polyethyleneimine. After filtration, a radioactivity remaining on the filter was counted using γ-counter, and an amount of specific binding (SB) was estimated by subtracting an amount of non-specific binding from an amount of maximum binding. Since the specific binding in the case where [¹²⁵I-Tyr¹⁰]-hGPR8L(1-23) was used, was twice as much as that in the case where [¹²⁵1-Tyr²]-hGPR8L(1-23) was used, in practice, [¹²⁵I-Tyr¹⁰]-hGPR8L(1-23) was used in the assay. When the concentration of membrane fraction was changed, a specific binding of [¹²⁵I-Tyr¹⁰]-hGPR8L(1-23) was perceived depending on the concentration of membrane fraction.
A receptor binding activity of human- and porcine-homologue derivatives of GPR8 ligand peptide, wherein the synthesis method has been described in the specification, was measured using a membrane fraction of GPR8 expressing CHO cells and [¹²⁵-Tyr¹⁰]-hGPR8L(1-23) by the method described in Reference Example 43.

Test [9] concerns the target T1, TGR26, rat-derived G protein-coupled …. In words: competition with [125I-Tyr10]-hGPR8L(1-23), membrane fraction of TGR26 expressing CHO cells, 3 µg/ml. As to the method: as §1
Test [10] deals with T2, Human GPR7. In words: competition with [Phe2, 125I-Tyr10]-Human GPR8 ligand (1-20), membrane fraction of GPR7 expressing CHO cells, 15 µg/ml. As to the method: as §2, with “In” for “Cell membrane fractions prepared from GPR7 expressing CHO cells and GPR8 expressing CHO cells, were diluted to various concentration with assay buffer (25 mM Tris-HCl, 5 mM EDTA, 0.05% CHAPS, 0.1% BSA, 0.5 mM PMSF, 1 μg/ml Pepstatin, 4 μg/ml E-64, 20 μg/ml Leupeptin, pH7.4), and 200 μl each of the diluent was dispensed into polypropilene test tube (Falcon 2053). In”
The inhibition of binding for GPR7 receptor or GPR8 receptor in the test sample (the inhibition rate (%)) is represented by the ratio of the values obtained by subtracting a radioactivity (X) remaining on the filter in the case where the test sample and of [Phe², ¹²⁵I-Tyr¹⁰]-Human GPR8 ligand (1-20) were added from the maximum binding (TB) to the specific binding (SB) ((TB−X)/SB×100(%)).
as §3

On to WYKHVASPRY(125I)HTVGRAAGLLMGL [[^125I-Tyr^10]-hGPR8L(1-23)], for which the binding result (in test [1]; with Human GPR7 [2]; in test [3]) was “binds” throughout.

B1: [Phe^2, ^125I-Tyr^10]-Human GPR8 ligand (1-20) (peptide)
peptide: WFKHVASPRY(125I)HTVGRAAGLL
notes: Radioligand made from [Phe2]; also called labeled [Phe^2]; Human GPR8 ligand (1-20)
On to B1, for which the binding result (with Human GPR7 [4]; in [5]) was “binds” in each case.

B2: human homologue of GPR8 ligand peptide consisting of 23 residues (peptide)
peptide: WYKHVASPRYHTVGRAAGLLMGL
notes: also called hGPR8L(1-23); Human GPR8 ligand (1-23)
For B2, the “inhibition of intracellular cAMP production (IC50)” value with Human GPR7 [6] was determined as 0.025 nM. Also, the “Promoting activity to GTPγS binding (EC50 nM)” value with Human GPR7 [7] was 0.74 nM. The IC50 in [8] worked out at 0.25 nM; in test [9] it was 0.12 nM; in the test with Human GPR7 [10] it was 0.13 nM.

By IC50 is commonly meant the point on the concentration scale where inhibition reaches its midpoint. Low values mean greater potency in that assay, high ones weaker potency in that assay.
